Assay results from patent US6083914.

What was measured:
[1] = target: platelets (human, fresh washed); test: competition: soluble peptide against divalent cation-independent adhesion of platelets to coated 45 kDa
[2] = target: platelets (human, fresh washed); test: competition: 300 uM soluble peptide against platelet adhesion to coated FN in the presence of Ca+2

| ED50 [1] | fold reduction of apparent affinity against FN312-326 [1] | percent reduction of platelet adhesion to FN [2] | Binder |
| --- | --- | --- | --- |
| > 2000 µM | – | – | TAVTQTY [FN312-318] |
| 712 µM | 10 fold | – | TAVTQTYGGNSN [FN312-323] |
| 68 µM | – | 50% | TAVTQTYGGNSNGEP [FN312-326] |
| > 2000 µM | – | – | QTYGGNSNGEPSVLPFTY [FN316-333] |
